{"source": "patent US20050144661A1", "about": "(WASHINGTON UNIVERSITY, published 2005)", "binders": {"B1": {"name": "CLuc-STAT1 (other, Photinus pyralis;human, UniProt P08659 398-550, looked up)", "chain": "MSGYVNNPEATNALIDKDGWLHSGDIAYWDEDEHFFIVDRLKSLIKYKGYQVAPAELESILLQHPNIFDAGVAGLPDDDAGELPAAVVVLEHGKTMTEKEIVDYVASQVTTAKKLRGGVVFVDEVPKGLTGKLDARKIREILIKAKKGGKSKLMSQWYELQQLDSKFLEQVHQLYDDSFPMEIRQYLAQWLEKQDWEHAANDVSFATIRFHDLLSQLDDQYSRFSLENNFLLQHNIRKSKRNLQDNFQEDPIQMSMIIYSCLKEERKILENAQRFNQAQSGNIQSTVMLDKQKELDSKVRNVKDKVMCIEHEIKSLEDLQDEYDFKCKTLQNREHETNGVAKSDQKQEQLLLKKMYLMLDNKRKEVVHKIIELLNVTELTQNALINDELVEWKRRQQSACIGGPPNACLDQLQNWFTIVAESLQQVRQQLKKLEELEQKYTYEHDPITKNKQVLWDRTFSLFQQLIQSSFVVERQPCMPTHPQRPLVLKTGVQFTVKLRLLVKLQELNYNLKVKVLFDKDVNERNTVKGFRKFNILGTHTKVMNMEESTNGSLAAEFRHLQLKEQKNAGTRTNEGPLIVTEELHSLSFETQLCQPGLVIDLETTSLPVVVISNVSQLPSGWASILWYNMLVAEPRNLSFFLTPPCARWAQLSEVLSWQFSSVTKRGLNVDQLNMLGEKLLGPNASPDGLIPWTRFCKENINDKNFPFWLWIESILELIKKHLLPLWNDGCIMGFISKERERALLKDQQPGTFLLRFSESSREGAITFTWVERSQNGGEPDFHAVEPYTKKELSAVTFPDIIRNYKVMAAENIPENPLKYLYPNIDKDHAFGKYYSRPKEAPEPMELDGPKGTGYIKTELISVSEVHPSRLQTTDNLLPMSPEEFDEVSRIVGSVEFDSMMNTV", "modifications": "unphosphorylated on Y701 in untreated cells (Western blot); phosphorylated after IFN-γ", "notes": "not shown: Gly/Ser linker with cloning sites"}}, "key": {"[1]": {"biological_target": "T1, STAT1-NLuc (human; Photinus pyralis, UniProt P42224 1-750; P08659 2-416 = luciferase, unphosphorylated on Y701 in untreated cells (Western blot); phosphorylated after IFN-γ)", "T1 construct": "not shown: Gly/Ser linker region reconstituted up to the BsiWI site", "test": "LCI, live HEK-293 cells"}, "[2]": {"biological_target": "T2, Unfused CLuc (Photinus pyralis)", "T2 chain": "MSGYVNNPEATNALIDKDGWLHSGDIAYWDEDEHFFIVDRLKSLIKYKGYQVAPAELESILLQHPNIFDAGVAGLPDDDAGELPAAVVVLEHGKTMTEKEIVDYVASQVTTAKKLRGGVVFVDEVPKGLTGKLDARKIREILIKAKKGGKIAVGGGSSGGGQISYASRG", "test": "cell-based or functional assay"}, "[3]": {"biological_target": "T3, CLuc(398-550)-FKBP (Photinus pyralis; human, UniProt P08659 398-550 = luciferase; P62942 1-108)", "T3 construct": "The printed ORF starts with an added Met; also called CLuc-FKBP; not shown: flexible Gly/Ser linker with multiple cloning site", "test": "LCI in mice with i.p. implants of transfected HEK-293 cells, with and without rapamycin"}, "[4]": {"biological_target": "T3, CLuc(398-550)-FKBP", "test": "cell-based or functional assay"}, "[5]": {"biological_target": "B1", "test": "LCI, live HEK-293 cells"}}}
{"binder": "CLuc-14-3-3ε (other, UniProt P08659 398-550, looked up, FKBP of the CLuc fusion vector replaced by 14-3-3ε; not shown: Gly/Ser linker with cloning sites) MSGYVNNPEATNALIDKDGWLHSGDIAYWDEDEHFFIVDRLKSLIKYKGYQVAPAELESILLQHPNIFDAGVAGLPDDDAGELPAAVVVLEHGKTMTEKEIVDYVASQVTTAKKLRGGVVFVDEVPKGLTGKLDARKIREILIKAKKGGKSKLMDDREDLVYQAKLAEQAERYDEMVESMKKVAGMDVELTVEERNLLSVAYKNVIGARRASWRIISSIEQKEENKGGEDKLKMIREYRQMVETELKLICCDILDVLDKHLIPAANTGESKVFYYKMKGDYHRYLAEFATGNDRKEAAENSLVAYKAASDIAMTELPPTHPIRLGLALNFSVFYYEILNSPDRACRLAKAAFDDAIAELDTLSEESYKDSTLIMQLLRDNLTLWTSDMQGDGEEQNKEALQDVEDENQ", "values": [{"measurement": "binding result", "setting": "[1]", "value": "no binding"}]}
{"binder": "B1", "values": [{"measurement": "binding result", "setting": "[1]", "value": "binds"}]}
{"binder": "Unfused NLuc (2-416) (other, Photinus pyralis, UniProt P08659 2-416, looked up) EDAKNIKKGPAPFYPLEDGTAGEQLHKAMKRYALVPGTIAFTDAHIEVNITYAEYFEMSVRLAEAMKRYGLNTNHRIVVCSENSLQFFMPVLGALFIGVAVAPANDIYNERELLNSMNISQPTVVFVSKKGLQKILNVQKKLPIIQKIIIMDSKTDYQGFQSMYTFVTSHLPPGFNEYDFVPESFDRDKTIALIMNSSGSTGLPKGVALPHRTACVRFSHARDPIFGNQIIPDTAILSVVPFHHGFGMFTTLGYLICGFRVVLMYRFEEELFLRSLQDYKIQSALLVPTLFSFFAKSTLIDKYDLSNLHEIASGGAPLSKEVGEAVAKRFHLPGIRQGYGLTETTSAILITPEGDDKPGAVGKVVPFFEAKVVDLDTGKTLGVNQRGELCVRGPMIMSGYVNNPEATNALIDKDG", "values": [{"measurement": "background bioluminescence against the FRB-NLuc/CLuc-FKBP pair in the absence of rapamycin", "setting": "[2]", "value": 12, "unit": "fold less"}, {"measurement": "background bioluminescence against the FRB-NLuc/CLuc-FKBP pair in the presence of rapamycin", "setting": "[2]", "value": 100, "unit": "fold less"}]}
{"binder": "S2035I FRB-NLuc (other, Point mutant of FRB-NLuc made by site directed mutagenesis; also called mutant FRB(S2035I); FRB(S20351)) MEMWHEGLEEAIRLYFGERNVKGMFEVLEPLHAMMERGPQTLKETSFNQAYGRDLMEAQEWCRKYMKSGNVKDLTQAWDLYYHVFRRISKQQISYASRGGGSSGGGEDAKNIKKGPAPFYPLEDGTAGEQLHKAMKRYALVPGTIAFTDAHIEVDITYAEYFEMSVRLAEAMKRYGLNTNHRIVVCSENSLQFFMPVLGALFIGVAVAPANDIYNERELLNSMGISQPTVVFVSKKGLQKILNVQKKLPIIQKIIIMDSKTDYQGFQSMYTFVTSHLPPGFNEYDFVPESFDRDKTIALIMNSSGSTGLPKGVALPHRTACVRFSHARDPIFGNQIIPDTAILSVVPFHHGFGMFTTLGYLICGFRVVLMYRFEEELFLRSLQDYKIQSALLVPTLFSFFAKSTLIDKYDLSNLHEIASGGAPLSKEVGEAVAKRFHLPGIRQGYGLTETTSAILITPEGDDKPGAVGKVVPFFEAKVVDLDTGKTLGVNQRGELCVRGPMIMSGYVNNPEATNALIDKDG", "values": [{"measurement": "binding result", "setting": "[3]", "value": "no binding"}]}
{"binder": "FRB-NLuc(2-416) (other, human;Photinus pyralis, UniProt P42345 2024-2113, looked up, range 2024-2113;range 2-416; The printed ORF starts with an added Met (MEMWHEG...); not shown: flexible Gly/Ser linker with multiple cloning site) HEMWHEGLEEASRLYFGERNVKGMFEVLEPLHAMMERGPQTLKETSFNQAYGRDLMEAQEWCRKYMKSGNVKDLTQAWDLYYHVFRRISKEDAKNIKKGPAPFYPLEDGTAGEQLHKAMKRYALVPGTIAFTDAHIEVNITYAEYFEMSVRLAEAMKRYGLNTNHRIVVCSENSLQFFMPVLGALFIGVAVAPANDIYNERELLNSMNISQPTVVFVSKKGLQKILNVQKKLPIIQKIIIMDSKTDYQGFQSMYTFVTSHLPPGFNEYDFVPESFDRDKTIALIMNSSGSTGLPKGVALPHRTACVRFSHARDPIFGNQIIPDTAILSVVPFHHGFGMFTTLGYLICGFRVVLMYRFEEELFLRSLQDYKIQSALLVPTLFSFFAKSTLIDKYDLSNLHEIASGGAPLSKEVGEAVAKRFHLPGIRQGYGLTETTSAILITPEGDDKPGAVGKVVPFFEAKVVDLDTGKTLGVNQRGELCVRGPMIMSGYVNNPEATNALIDKDG", "values": [{"measurement": "apparent Kd of rapamycin for induced FRB/FKBP association, bioluminescence readout in intact HEK-293 cells", "setting": "[4]", "value": 1.5, "unit": "nM"}, {"measurement": "apparent Ki of FK506 for inhibition of rapamycin-induced luciferase activity in situ (rapamycin 80 nM)", "setting": "[4]", "value": 4.2, "unit": "nM"}, {"measurement": "bioluminescence induction by rapamycin (80 nM) in cell lysates over untreated lysates, within 15 minutes", "setting": "[4]", "value": 18, "unit": "fold"}, {"measurement": "drug-specific induction of bioluminescence over background", "setting": "[4]", "value": 1200, "unit": "fold"}, {"measurement": "maximal mean bioluminescence signal over untransfected cells, with rapamycin, live HEK-293 cells", "setting": "[4]", "value": 72, "unit": "fold"}, {"measurement": "maximum bioluminescence in rapamycin-treated mice over untreated mice (i.p. cell implants)", "setting": "[4]", "value": 23, "unit": "fold"}, {"measurement": "mean maximal increase in bioluminescence with rapamycin (80 nM) over untreated transfected cells, within 4-6 hrs", "setting": "[4]", "value": 6, "unit": "fold"}, {"measurement": "bioluminescence signal against FRB-NLuc/CLuc-FKBP without rapamycin", "setting": "[2]", "value": 3, "unit": "fold lower"}, {"measurement": "binding result", "setting": "[5]", "value": "no binding"}]}
{"binder": "Cdc25C-NLuc (other, human;Photinus pyralis, UniProt P30307 1-473, looked up, phosphorylated on S216 in the cells (Western blot, reduced by UCN-01), FRB of the NLuc fusion vector replaced by the Cdc25C open reading frame; not shown: Gly/Ser linker region reconstituted up to the BsiWI site) MSTELFSSTREEGSSGSGPSFRSNQRKMLNLLLERDTSFTVCPDVPRTPVGKFLGDSANLSILSGGTPKRCLDLSNLSSGEITATQLTTSADLDETGHLDSSGLQEVHLAGMNHDQHLMKCSPAQLLCSTPNGLDRGHRKRDAMCSSSANKENDNGNLVDSEMKYLGSPITTVPKLDKNPNLGEDQAEEISDELMEFSLKDQEAKVSRSGLYRSPSMPENLNRPRLKQVEKFKDNTIPDKVKKKYFSGQGKLRKGLCLKKTVSLCDITITQMLEEDSNQGHLIGDFSKVCALPTVSGKHQDLKYVNPETVAALLSGKFQGLIEKFYVIDCRYPYEYLGGHIQGALNLYSQEELFNFFLKKPIVPLDTQKRIIIVFHCEFSSERGPRMCRCLREEDRSLNQYPALYYPELYILKGGYRDFFPEYMELCEPQSYCPMHHQDHKTELLRCRSQSKVQEGERQLREQIALLVKDMSPEDAKNIKKGPAPFYPLEDGTAGEQLHKAMKRYALVPGTIAFTDAHIEVNITYAEYFEMSVRLAEAMKRYGLNTNHRIVVCSENSLQFFMPVLGALFIGVAVAPANDIYNERELLNSMNISQPTVVFVSKKGLQKILNVQKKLPIIQKIIIMDSKTDYQGFQSMYTFVTSHLPPGFNEYDFVPESFDRDKTIALIMNSSGSTGLPKGVALPHRTACVRFSHARDPIFGNQIIPDTAILSVVPFHHGFGMFTTLGYLICGFRVVLMYRFEEELFLRSLQDYKIQSALLVPTLFSFFAKSTLIDKYDLSNLHEIASGGAPLSKEVGEAVAKRFHLPGIRQGYGLTETTSAILITPEGDDKPGAVGKVVPFFEAKVVDLDTGKTLGVNQRGELCVRGPMIMSGYVNNPEATNALIDKDG", "values": [{"measurement": "binding result", "setting": "[5]", "value": "no binding"}]}
